Measured values as given in the supplement of paper PMC10567573.

B1: RHOBTB3 (parent)
chain: KVVEAHKIVLCAVSHVFMLLFNVK
B2: IMPA1 (parent)
chain: FIGEESVAAGEKSILTDNPTWIID

Variants of: B1
Assay: protein stability index of a GFP-peptide fusion (GPS, HEK-293T) (PSI 1-6); higher = more stable
Conditions: c terminus: a fixed tail appended
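Also: lentivirally expressed fusions sorted by FACS into six bins by GFP to DsRed ratio, PSI derived from sequencing read proportions per bin multiplied by bin number.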

Protein stability index of substitutions, site by site:
S14: F 2.8, N 3.59, I 2.88, Y 2.55
L10: F 2.66, V 3.3, S 3.43, R 1.64, T 3.3
V9: G 2.12, Q 2.73, W 3.46, T 2.47
A12: C 2.29, Q 2.37, L 3.63, I 1.96
N22: C 2.31, L 2.42, F 2.43, T 4.37
H6: S 1.92, P 2.4, W 2.24
F21: G 4.01, R 1.81, K 1.76, E 1.88, H 2.51, V 3.87
A5: G 3.1, T 1.72, M 3.42, V 2.48, K 2.58, D 3.37, W 3.03
M18: A 3.04, P 2.3
C11: N 1.88, T 1.99
V13: Q 2.9, E 2.5, K 3.18
V2: D 2.57
V23: P 2.86, C 2.47, I 2.57
K7: P 2.02, S 2.01, F 2.99, Q 3, D 3.98
I8: D 2.04, T 2.93, V 1.68, Y 1.88, A 2.45, K 2.59, Q 2.41
K1: T 2.71, Q 1.9, N 2.52
K24: D 3.08, I 2.06, H 1.55, L 2.21, T 2.95
F17: I 2.06, M 2.78, W 2.49, H 3.54
L20: H 3.28, Y 3.49, G 1.26, D 3.54
V3: Y 2.53, R 2.02, T 2.36, M 3.1, F 3.62, Q 3.48
V16: L 2.43, K 3.55, E 3.26, G 3.44, A 2.97
H15: P 1.89
L19: N 2.18, S 2.2, T 3.4
E4: D 2.33

Variants of: B2
Assay: as above
Conditions: c terminus: a fixed tail appended

Protein stability index: each site, then its substitutions
F1: A 4.65, C 4.46, D 5.07, E 4.81, G 4.86, H 4.56, I 3.98, K 4.61, L 4.34, M 4.6, N 4.45, P 4.56, Q 4.87, R 4.38, S 4.96, T 4.76, V 4.52, W 3.74, Y 2.54
I2: A 2.59, C 2.27, D 4.79, E 4.82, F 3.65, G 4.24, H 2.59, K 4.42, L 2.99, M 3.7, N 4.25, P 3.05, Q 3.89, R 4.28, S 3.65, T 2.83, V 1.1, W 2.74, Y 3.4
G3: A 2.05, C 1.31, D 3.27, E 3.55, F 1.93, H 1.86, I 1.4, K 2.17, L 1.6, M 1.78, N 1.99, P 1.87, Q 2.52, R 1.64, S 1.89, T 1.92, V 2.8, W 1.59, Y 1.88
E4: A 2.54, C 2.04, D 2.01, F 3.31, G 2.14, H 1.76, I 1.84, K 1.83, L 1.8, M 2.35, N 1.98, P 1.77, Q 1.5, R 2.04, S 1.8, T 1.85, V 1.53, W 3.71, Y 1.9
E5: A 2.05, C 2.7, D 1.89, F 3.35, G 2.79, H 1.93, I 3.46, K 1.88, L 1.71, M 2.31, N 1.53, P 2.35, Q 2.38, R 2, S 1.92, T 2.38, V 3.68, W 1.29, Y 2.52
S6: A 2.01, C 1.7, D 2.56, E 3.07, F 1.81, G 2.42, H 2.29, I 1.73, K 1.57, L 2.24, M 2.07, N 2.25, P 3.1, Q 2.42, R 1.51, T 2.23, V 1.7, W 2.53, Y 1.51
V7: A 2.46, C 2, D 2.71, E 3.03, F 2.05, G 2.15, H 2.06, I 1.92, K 2.53, L 2.25, M 1.94, N 2.4, P 2.19, Q 2.19, R 1.85, S 2.17, T 2.28, W 1.94, Y 2.01
A8: C 1.55, D 2.72, E 2.79, F 1.84, G 2.46, H 1.75, I 1.58, K 2.35, L 2.08, M 2.05, N 2.23, P 2.54, Q 2.29, R 1.62, S 2.3, T 2.13, V 2.52, W 1.74, Y 2.39
A9: C 1.84, D 2.98, E 2.42, F 2.04, G 2.09, H 1.8, I 1.81, K 1.96, L 1.78, M 1.75, N 2.03, P 2.52, Q 2.24, R 1.5, S 1.95, T 2.1, V 2.31, W 1.87, Y 2.59
G10: A 2.18, C 2.21, D 2.48, E 2.8, F 1.85, H 1.87, I 2.43, K 2.01, L 2.41, M 2.2, N 2.21, P 2.15, Q 2.67, R 1.97, S 2, T 2.19, V 2.37, W 1.83, Y 1.85
E11: A 1.86, C 1.98, D 2.3, F 2.57, G 1.96, H 1.7, I 2.1, K 1.89, L 1.77, M 2.01, N 2.04, P 1.53, Q 1.98, R 1.49, S 2.17, T 2.3, V 1.92, W 1.37, Y 1.93
K12: A 2.25, C 1.93, D 2.27, E 2.21, F 1.56, G 1.91, H 2.06, I 1.61, L 2.25, M 2.29, N 1.89, P 2.45, Q 1.97, R 2.57, S 2.12, T 2.32, V 2.11, W 1.97, Y 2.35
S13: A 2.06, C 2.27, D 2.44, E 2.32, F 1.97, G 1.67, H 1.96, I 1.99, K 2.16, L 1.95, M 1.73, N 1.98, P 2.02, Q 1.99
